Values of other authors as cited in patent US20260217837A1, “FGFR3 BINDING MOLECULES AND METHODS OF USE THEREOF” (Regeneron Pharmaceuticals, Inc., priority 2023, published 2026).
Where two headings read alike, the source gives them in different places.

B1: PRO-012: anti-FGFR3 antibody of WO 2006/048877 A2; SEQ ID NO: 47/27 (antibody, V domains shown)
VH: QVQLKESGPALVKPTQTLTLTCTFSGFSLSTSGVGVGWIRQPPGKALEWLALIDWDDDKYYSTSLKTRLTISKDTSKNQVVLTMTNMDPVDTATYYCARYHSWYEMGYYGSTVGYMFDYWGQGTLVTVSS
VL: DIELTQPPSVSVAPGQTARISCSGDALGDKYASWYQQKPGQAPVLVIYDDSDRPSGIPERFSGSNSGNTATLTISGTQAEDEADYYCQSYDFDFAVFGGGTKLTVLGQ
B2: MS-PRO-12: anti-FGFR3 Ig-like domain 2 antibody of WO 2002/102972 A2; SEQ ID NO: 26/27 (antibody, V domains shown)
VH: QVQLKESGPALVKPQTLTLTCTFSGFSLSTSGVGVGWIRQPPGKALEWLALIDWDDDKYYSTSLKTRLTISKDTSKNQVVLTMTNMDPVDTATYYCARYHSWYEMGYYGSTVGYMFDYWGQGTLVTVSS
VL: DIELTQPPSVSVAPGQTARISCSGDALGDKYASWYQQKPGQAPVLVIYDDSDRPSGIPERFSGSNSGNTATLTISGTQAEDEADYYCQSYDFDFAVFGGGTKLTVLGQ
B3: 15D8: anti-FGFR3 Igl 3 antibody of WO 2010/002862 A2; SEQ ID NO: 51/52 (antibody, V domains shown)
VH: EIQLQQSGPELVKPGASVKVSCKASGYAFTSYNMYWVKQSHGKSLEWIGYIDPYNGGTSYNQKFKGKATLTVDKSSSTAYMHLNSLTSEDSAVYYCAREGGNYEAWFAYWGQGTLVTVSA
VL: QIVLTQSPALMSASPGEKVTMTCSASSSVSYMYWYQQKPRSSPKPWIYLTSYLASGVPARFSGSGSGTSYSLTISSMEAEDAATYYCQQWSSYPLTFGAGTKLELK
B4: 4E7(7D12): anti-FGFR3 Igl 3 antibody of WO 2010/002862 A2; SEQ ID NO: 56/54 (antibody, V domains shown)
VH: EIQLQQSGPELVKPGASVKVSCKASGYAFTSYNMYWVKQSHGKSLEWIGYIDPYNGGTRYNQKFKGKATLTVDKSSSTAYMHLNSLTSEDSAVYYCAREGGNYEAWFAYWGQGTLVTVSA
VL: QIVLTQSPALMSASPGEKVTMTCSASSSVSYMYWYQQKPRSSPKPWIYLTSNLASGVPARFSGSGSGTSYSLTISSMEAEDAATYYCQQWSSNPLTFGAGTKLELK
B5: 27H2: anti-FGFR3 Igl 3 antibody of WO 2010/002862 A2; SEQ ID NO: 53/54 (antibody, V domains shown)
VH: EIQLQQSGPELVKPGASVKVSCKASGYAFTSYNMYWVKQSHGKSLEWIGYIDPYNGGTRYNQKFKGKATMTVDKSSSTAYMHLNSLTSEDSAVYYCAREGGNYEAWFAYWGQGTLVTVSA
VL: QIVLTQSPALMSASPGEKVTMTCSASSSVSYMYWYQQKPRSSPKPWIYLTSNLASGVPARFSGSGSGTSYSLTISSMEAEDAATYYCQQWSSNPLTFGAGTKLELK
B6: 2G4: anti-FGFR3 Igl 3 antibody of WO 2010/002862 A2; SEQ ID NO: 55/54 (antibody, V domains shown)
VH: EIQLQQSGPELVKPGASVKVSCKASGYAFTSYNMYWVKQSHGKSLEWIGYIDPYNGGTRDNQKFKGKATLTVDKSSSTAYMHLNSLTSEDSAVYYCAREGGNYEAWFAYWGQGTLVTVSA
VL: QIVLTQSPALMSASPGEKVTMTCSASSSVSYMYWYQQKPRSSPKPWIYLTSNLASGVPARFSGSGSGTSYSLTISSMEAEDAATYYCQQWSSNPLTFGAGTKLELK
B7: MS-Pro-55: anti-FGFR3 Ig-like domain 3 antibody of WO 2002/102972 A2; SEQ ID NO: 44/45 (antibody, V domains shown)
VH: QVQLVQSGAEVKKPGASVKVSCKASGYTFTSYYMHWVRQAPGQGLEWMGWINPNSGGTNYAQKFQGRVTMTRDTSISTAYMELSSLRSEDTAVYYCARSMNSTMYWYLRRVLFDHWGQGTLVTVSS
VL: DIALTQPASVSGSPGQSITISCTGTSSDVGGYNYVSWYQQHPGKAPKLMIYDVSNRPSGVSNRFSGSKSGNTASLTISGLQAEDEADYYCQSYDMYNYIVFGGGTKLTVLGQ
B8: PRO-055: anti-FGFR3 IIIc antibody of WO 2006/048877 A2; SEQ ID NO: 44/45 (antibody, V domains shown)
VH: QVQLVQSGAEVKKPGASVKVSCKASGYTFTSYYMHWVRQAPGQGLEWMGWINPNSGGTNYAQKFQGRVTMTRDTSISTAYMELSSLRSEDTAVYYCARSMNSTMYWYLRRVLFDHWGQGTLVTVSS
VL: DIALTQPASVSGSPGQSITISCTGTSSDVGGYNYVSWYQQHPGKAPKLMIYDVSNRPSGVSNRFSGSKSGNTASLTISGLQAEDEADYYCQSYDMYNYIVFGGGTKLTVLGQ
B9: PRO-001: anti-FGFR3 antibody of WO 2006/048877 A2; SEQ ID NO: 46/29 (antibody, V domains shown)
VH: QVQLQQSGPGLVKPSQTLSLTCAISGDSVSSNSAAWNWIRQSPGRGLEWLGRTYYRSKWYNDYAVSVKSRITINPDTSKNQFSLQLNSVTPEDTAVYYCARSYYPDFDYWGQGTLVTVSS
VL: DIELTQPPSVSVAPGQTARISCSGDALGDKYASWYQQKPGQAPVLVIYDDSDRPSGIPERFSGSNSGNTATLTISGTQAEDEADYYCQSYDGPDLWVFGGGTKLTVLGQ
B10: PRO-002: anti-FGFR3 antibody of WO 2006/048877 A2; SEQ ID NO: 24/25 (antibody, V domains shown)
VH: QVQLVQSGAEVKKPGASVKVSCKASGYTFTSYYMHWVRQAPGQGLEWMGWINPNSGGTNYAQKFQGRVTMTRDTSISTAYMELSSLRSEDTAVYYCARDFLGYEFDYWGQGTLVTVSS
VL: DIELTQPPSVSVAPGQTARISCSGDALGDKYASWYQQKPGQAPVLVIYDDSDRPSGIPERFSGSNSGNTATLTISGTQAEDEADYYCQSYDYSADYVFGGGTKLTVLGQ
B11: Hu15D8: anti-FGFR3 Igl 3 antibody of WO 2010/002862 A2; SEQ ID NO: 59/60 (antibody, V domains shown)
VH: EVQLVQSGAEVKKPGESLKISCKGSGYSFTSYNMYWVRQMPGKGLEWMGYIDPYNGGTSYNQKFKGKATLTVDKSISTAYLQWSSLKASDTAMYYCAREGGNYEAWFAYWGQGTLVTVSS
VL: DIQLTQSPSSLSASVGDRVTITCSASSSVSYMYWFQQKPGKAPKPLIYLTSYLASGVPSRFSGSGSGTDFTLTISSLQPEDFATYYCQQWSSYPLTFGGGTKVEIK
B12: 20B4: anti-FGFR3 Igl 3 antibody of WO 2010/002862 A2; SEQ ID NO: 57/58 (antibody, V domains shown)
VH: EIQLQQSGPELVKPGASVKVSCKASGYSLTDYNMYWVKQSHGKSLEWIGYIDPYNGGTSYNQKFKGKATLTVDKSSSTAFMHLNSLTSEDSAVYYCARSLGPDFDYWGQGTTLTVSS
VL: QIVLTQSPAIMSASPGEKVTMTCSASSSVNYMHWYQQKSGTSPKRWIYDTSKLASGVPARFSGSGSGTSYSLTISSMEAEDTATYYCQQWNSNPLTFGAGTKLELK
B13: PRO-026: anti-FGFR3 IIIc antibody of WO 2006/048877 A2; SEQ ID NO: 36/37 (antibody, V domains shown)
VH: QVQLVQSGAEVKKPGASVKVSCKASGYTFTSYYMHWVRQAPGQGLEWMGWINPNSGGTNYAQKFQGRVTMTRDTSISTAYMELSSLRSEDTAVYYCARGYWYAYFTYINYGYFDNWGQGTLVTVSS
VL: DIALTQPASVSGSPGQSITISCTGTSSDVGGYNYVSWYQQHPGKAPKLMIYDVSNRPSGVSNRFSGSKSGNTASLTISGLQAEDEADYYCQSYDNNSDWFGGGTKLTVLGQ
B14: PRO-029: anti-FGFR3 IIIc antibody of WO 2006/048877 A2; SEQ ID NO: 40/49 (antibody, V domains shown)
VH: QVQLVQSGAEVKKPGASVKVSCKASGYTFTSYYMHWVRQAPGQGLEWMGWINPNSGGTNYAQKFQGRVTMTRDTSISTAYMELSSLRSEDTAVYYCARTWQYSYFYYLDGGYYFDIWGQGTLVTVSS
VL: DIVLTQSPATLSLSPGERATLSCRASQSVSSSYLAWYQQKPGQAPRLLIYGASSRATGVPARFSGSGSGTDFTLTISSLEPEDFATYYCQQTNNAPVTFGQGTKVEIKRT
B15: MS-Pro-54: anti-FGFR3 Ig-like domain 3 antibody of WO 2002/102972 A2; SEQ ID NO: 42/43 (antibody, V domains shown)
VH: QVQLVQSGAEVKKPGASVKVSCKASGYTFTSYYMHWVRQAPGQGLEWMGWINPNSGGTNYAQKFQGRVTMTRDTSISTAYMELSSLRSEDTAVYYCARNMAYTNYQYVNMPHFDYWGQGTLVTVSS
VL: DIELTQPPSVSVAPGQTARISCSGDALGDKYASWYQQKPGQAPVLVIYDDSDRPSGIPERFSGSNSGNTATLTISGTQAEDEADYCQSYDYFKLVFGGGTKLTVLGQ
B16: PRO-054: anti-FGFR3 IIIc antibody of WO 2006/048877 A2; SEQ ID NO: 42/50 (antibody, V domains shown)
VH: QVQLVQSGAEVKKPGASVKVSCKASGYTFTSYYMHWVRQAPGQGLEWMGWINPNSGGTNYAQKFQGRVTMTRDTSISTAYMELSSLRSEDTAVYYCARNMAYTNYQYVNMPHFDYWGQGTLVTVSS
VL: DIELTQPPSVSVAPGQTARISCSGDALGDKYASWYQQKPGQAPVLVIYDDSDRPSGIPERFSGSNSGNTATLTISGTQAEDEADYYCQSYDYFKLVFGGGTKLTVLGQ

Tested on: FGFR3
[1] = Table T-1, exemplary FGFR3 parental antibodies of cited publications
[2] = Exemplary FGFR3 D3 binding sequences, antibodies of cited PCT publications

Molecule | Activity [1] | Activity [2]
B1 | Antagonistic | –
B2 | Antagonistic | –
B3 | Antagonistic | Antagonistic
B4 | Antagonistic | Antagonistic
B5 | Antagonistic | Antagonistic
B6 | Antagonistic | Antagonistic
B7 | Antagonistic | Antagonistic
B8 | Antagonistic | Antagonistic
B9 | Antagonistic | –
B10 | Antagonistic | –
B11 | Antagonistic | Antagonistic
B12 | Antagonistic | Antagonistic
B13 | Antagonistic | Antagonistic
B14 | Antagonistic | Antagonistic
B15 | Antagonistic | Antagonistic
B16 | Antagonistic | Antagonistic
